Measured values as given in patent publication US20230242577A1 (UBIPROTEIN, published 2023).

B1: pCMV3-C-myc-prepro-GHRL WT (ligand)
chain: GSSFLSPEHQRVQQRKESKKPPAKLQPRALAGWLRPEDGGQAEGAEDEMEVRFNAPFDVGIKLSGVQYQQHSQALGKFLQDILWEEAKEAPADK
notes: also called Ghrelin/obestatin preprohormone; appetite stimulating hormone precursor; not shown: myc tag of the pCMV3-C-myc vector
B2: pcDNA3-myc-GLP-1 WT (ligand)
chain: HAEGTFTSDVSSYLEGQAAKEFIAWLVKGRG
notes: also called glucagon-like peptide-1; human GLP-1; not shown: myc tag of the pcDNA3-myc vector
B3: pcDNA3-myc-β-trophin WT (ligand)
chain: APMGGPELAQHEELTLLFHGTLQLGQALNGVYRTTEGRLTKARNSLGLYGRTIELLGQEVSRGRDAAQELRASLLETQMEEDILQLQAEATAEVLGEVAQAQKVLRDSVQRLEVQLRSAWLGPAYREFEVLKAHADKQSHILWALTGHVQRQRREMVAQQHRLRQIQERLHTAALPA
notes: also called human β-trophin; not shown: myc tag of the pcDNA3-myc vector
B4: pcDNA3-myc-G-CSF WT (ligand)
chain: TPLGPASSLPQSFLLKCLEQVRKIQGDGAALQEKLVSECATYKLCHPEELVLLGHSLGIPWAPLSSCPSQALQLAGCLSQLHSGLFLYQGLLQALEGISPELGPTLDTLQLDVADFATTIWQQMEELGMAPALQPTQGAMPAFASAFQRRAGGVLVASHLQSFLEVSYRVLRHLAQP
notes: also called human G-CSF; not shown: myc tag of the pcDNA3-myc vector
B5: pCMV3-C-myc-VEGFA WT (ligand)
chain: APMAEGGGQNHHEVVKFMDVYQRSYCHPIETLVDIFQEYPDEIEYIFKPSCVPLMRCGGCCNDEGLECVPTEESNITMQIMRIKPHQGQHIGEMSFLQHNKCECRPKKDRARQEKKSVRGKGKGQKRKRKKSRPCGPCSERRKHLFVQDPQTCKCSCKNTDSRCKARQLELNERTCRCDKPRR
notes: also called vascular endothelial growth factor A; human VEGFA; not shown: myc tag of the pCMV3-C-myc vector
B6: pcDNA3-myc-interferon-β WT (ligand)
chain: MSYNLLGFLQRSSNFQCQKLLWQLNGRLEYCLKDRMNFDIPEEIKQLQQFQKEDAALTIYEMLQNIFAIFRQDSSSTGWNETIVENLLANVYHQINHLKTVLEEKLEKEDFTRGKLMSSLHLKRYYGRILHYLKAKEYSHCAWTIVRVEILRNFYFINRLTGYLRN
notes: also called IFN-β; human interferon-β; not shown: myc tag of the pcDNA3-myc vector

Biological target: T1, HA-ubiquitin (from pMT123-HA-ubiquitin) (UniProt P0CG47 1-76)
T1 construct: one ubiquitin unit is residues 1-76; not shown: HA tag of pMT123-HA-ubiquitin
Assay: anti-myc IP, anti-HA blot, HEK 293T co-transfected with HA-ubiquitin (ubiquitination)

Row | Binder | binding result
1 | B1 | binds
2 | B2 | binds
3 | B3 | binds
4 | B4 | binds
5 | B5 | binds
6 | B6 | binds
